Experiments:
PBMCs = test: IFN-γ ELISpot after 2 weeks PBMC culture with single ASPH peptide; type: cell-based, human; conditions: 5 healthy blood donors HD #1-5
Procedure: (§1) Epitope-specific T cells were induced according to known methods.^21 Briefly, 2.5×10^5 PBMCs/200 μl X-VIVO 15 medium supplemented with 1 mM L-glutamine, 100 U/ml penicillin, 100 μg/ml streptomycin, and 50 U/ml recombinant human IL-2 (R&D Systems) in round-bottom 96-well plates were cultured for 2 weeks with 10 μg/ml individual peptide. When mature DCs were used as antigen-presenting cells, the T cells were isolated from PBMCs by negative selection using the Pan T Cell Isolation Kit II (Miltenyi Biotec). Regulatory T(reg) cells were removed by the addition of anti-CD25 microbeads (Miltenyi Biotec) where indicated. Treg cell-depleted or non-depleted T lymphocytes (2.4×10^6) were co-cultured for 8 days with 4×10^4 mature DCs loaded with relevant antigen in 24-well plates.^11
Human IFN-γ enzyme-linked immunospot (ELISpot) assays were performed as we described previously using a kit purchased from eBioscience (San Diego, Calif.) to determine T cell immune-reactivity.^21 Cells (5×10^4/well) were added to ELISpot plates (Millipore, Bedford, Mass.) pre-coated with anti-IFN-γ capture antibody and incubated with peptides (10 μg/ml) for 20 hours. […] The plates were developed by adding substrate, 3-amino-9-ethyl carbazole, and the number of spots/well was quantified using a CTL-immunospot S5 UV Analyzer (Cellular Technology Limited, Shaker Heights, Ohio).

[1] = tested on: established orthotropic HCC; conditions: mice bearing established orthotropic HCC; cited from earlier work
PBMCs (CD4+ T cells) = test: Flow cytometric analysis of peptide-cultured PBMCs (IFN-γ+CD4+, CD154); type: cell-based, human; conditions: PBMCs of HD #1
Procedure: FIG. 3A is a histogram, FIGS. 3B and C are bar graphs, and FIG. 3D is a line graph. Characterization of ASPH peptide-specific T cell responses. PBMCs obtained from patient HD #1 were cultured with the ASPH peptides indicated. After 2 weeks incubation, the cells were collected and re-cultured with the corresponding peptides for 20 hours, followed by analyses. p52-reactive PBMCs were stained and the percentage of IFN-γ^+CD4^+ T cells was determined by flow cytometric analysis (FIG. 3A). The percentage of CD154-expressing CD4^+ T cells assessed by flow cytometric analysis was determined as a measure of the response of cells to the ASPH peptide listed in accordance with Table I (FIG. 3B). […] PBMCs cultured 2 weeks with the peptides listed were not treated or pretreated with anti-HLA-A,B,C or anti-HLA-DR for 1 hour; the same corresponding peptide (10 μg/ml) was then added and IFN-γ in the culture supernates collected after 5 days was quantified by ELISA (FIG. 3C). […] PBMCs, cultured 2 weeks with the ASPH peptides listed, were collected and reincubated with increasing concentrations of the same peptide. IFN-γ in the culture supernates collected after 5 days was quantified by standard ELISA. […]

[2] = tested on: tumor-bearing mouse model; conditions: cited from earlier work
Treg cells = conditions: low doses; cited from earlier work
[3] = tested on: pan T cells purified from PBMCs (CD4+ T cells, CD8+ CTLs); test: T cell activation by co-culture with antigen-loaded monocyte-derived DCs, flow cytometric analysis; type: cell-based, human
Procedure: DCs were generated using known methods.^11,20 Monocytes were isolated from PBMCs using anti-CD14 microbeads (Miltenyi Biotec, Auburn, Calif.) and cultured for 5 days in X-VIVO 15 medium (Lonza, Walkerville, Md.) supplemented with human GM-CSF (R&D Systems, Minneapolis, Minn.) and IL-4 (R&D Systems). ASPH (1 μg/ml) was added on day 5. On the next day, TNF-α (R&D Systems) was added to stimulate DC maturation and the cells were incubated for another 48 hours. DCs incubated with α-fetoprotein (AFP; Zynaxis Cell Science, Malvern, Pa.) or alone served as the control. Mature, epitope-expressing DCs were collected at the end of the incubation period and used in the experiments described.
as §1
Flow cytometric analysis was conducted.^11 Intracellular cytokine staining was performed to evaluate T cell activation. Conjugated mouse monoclonal antibodies specific for the following determinants were used: CD4 (clone OKT4; BioLegend, San Diego, Calif.), CD8a (clone RPA-T8; BioLegend), CD137 (clone 4B4-1; BD Biosciences, San Diego, Calif.), CD154 (clone TRAP1; BD Biosciences), and IFN-γ (clone B27; BD Biosciences). Appropriate isotype controls were included in each analysis.
Experiments were undertaken to determine the capacity of ASPH to activate CD8^+ CTLs, as well as helper CD4^+ T cells, contained in the PBMC populations derived from HCC patients. The experimental procedure for evaluating ASPH-specific T cell activation was optimized using PBMCs derived from a healthy donor.^11 Pan T cells were co-cultured with autologous, ASPH-pulsed DCs; T cells co-incubated with AFP-pulsed or non-pulsed DCs served as controls. After 8 days culture, the T cells were collected and re-incubated with freshly prepared DCs pre-loaded with the same antigen; antigen-specific T cell activation was evaluated by flow cytometric analysis. […] Moreover, they support the premise that immunization with ASPH activates protein-specific CD4^+ and CD8^+ T cells in HCC patients.

[4] = HCC patients #1-5, ASPH-pulsed vs AFP-pulsed or non-pulsed DCs

## QKAKVKKKKPKLLNKF (p322) [ASPH AA 322-337, HLA-DRB1-restricted]
PBMCs
  healthy blood donors for whom the peptide was immunogenic: 5 donors

## CNC(=O)c1cc(Oc2ccc(NC(=O)Nc3ccc(Cl)c(C(F)(F)F)c3)cc2)ccn1 [sorafenib]
[1]
  Treg cell function and anti-tumor immunity: reduced Treg cell function and enhanced anti-tumor immunity

## TSFFTWFMVIALLGVWTSVA (p52) [ASPH AA 52-71, HLA-DRB1-restricted]
PBMCs (CD4+ T cells)
  peptide-reactive IFN-γ-producing cells that expressed CD4: essentially all

## O=P1(N(CCCl)CCCl)NCCCO1 (centres unmarked) [cyclophosphamide]
[2]
  Treg cell function, immune response and tumor eradication: suppressed Treg cell function and augmented the immune response and tumor eradication
Treg cells
  number and inhibitory activity of Treg cells: decrease the number and inhibitory activity of Treg cells

B1: ASPH: Full-length human ASPH recombinant protein produced in a Baculovirus system, loaded on monocyte-derived DCs (protein, listed as Homo sapiens)
chain: MAQRKNAKSSGNSSSSGSGSGSTSAGSSSPGARRETKHGGHKNGRKGGLSGTSFFTWFMVIALLGVWTSVAVVWFDLVDYEEVLGKLGIYDADGDGDFDVDDAKVLLGLKERSTSEPAVPPEEAEPHTEPEEQVPVEAEPQNIEDEAKEQIQSLLHEMVHAEHVEGEDLQQEDGPTGEPQQEDDEFLMATDVDDRFETLEPEVSHEETEHSYHVEETVSQDCNQDMEEMMSEQENPDSSEPVVEDERLHHDTDDVTYQVYEEQAVYEPLENEGIEITEVTAPPEDNPVEDSQVIVEEVSIFPVEEQQEVPPETNRKTDDPEQKAKVKKKKPKLLNKFDKTIKAELDAAEKLRKRGKIEEAVNAFKELVRKYPQSPRARYGKAQCEDDLAEKRRSNEVLRGAIETYQEVASLPDVPADLLKLSLKRRSDRQQFLGHMRGSLLTLQRLVQLFPNDTSLKNDLGVGYLLIGDNDNAKKVYEEVLSVTPNDGFAKVHYGFILKAQNKIAESIPYLKEGIESGDPGTDDGRFYFHLGDAMQRVGNKEAYKWYELGHKRGHFASVWQRSLYNVNGLKAQPWWTPKETGYTELVKSLERNWKLIRDEGLAVMDKAKGLFLPEDENLREKGDWSQFTLWQQGRRNENACKGAPKTCTLLEKFPETTGCRRGQIKYSIMHPGTHVWPHTGPTNCRLRMHLGLVIPKEGCKIRCANETRTWEEGKVLIFDDSFEHEVWQDASSFRLIFIVDVWHPELTPQQRRSLPAI
[3]; HCC patients #1-5
  CD4+ T cells expressing both IFN-γ and CD154: expanded significantly
[3]; [4]
  CD4+CD154+ and CD4+IFN-γ+ T cells: significant increases
  percentage of CD8+ CTLs expressing CD137 and IFN-γ: significantly higher
[3]; HCC patients, FIGS. 1B and 1D, p<0.05
  percentages of responsive cells vs AFP sample or antigen control: significantly greater
[3]; anti-CD25 microbeads prior to co-culture
  ASPH-specific T cell activation after Treg cell depletion: enhanced
[3]; healthy donor HD #1, ASPH-pulsed DCs compared to AFP or no antigen
  activation of both CD4+ T cells and CTLs: significant increases
